Where a chain is given by its changes, count along the chain named. Names may count otherwise. “And” between values parts separate entries of the source, which are not always exact repeats. Equal entries are not always repeated. Blank lines part the entries; values can stand above or below the binder they belong to.
Assays:
[1] = target: T1, Heat shock factor 1 (Hsf1) wild-type (human), Q00613; assay: SEC-MALS; without reductant (oxidative conditions); 50 uM injected; 25 mM HEPES/KOH pH 7.2, 150 mM KCl; Bio SEC-5 1000 A column; oligomer size from the median molar mass; details: remark: other sources report otherwise
T1 chain: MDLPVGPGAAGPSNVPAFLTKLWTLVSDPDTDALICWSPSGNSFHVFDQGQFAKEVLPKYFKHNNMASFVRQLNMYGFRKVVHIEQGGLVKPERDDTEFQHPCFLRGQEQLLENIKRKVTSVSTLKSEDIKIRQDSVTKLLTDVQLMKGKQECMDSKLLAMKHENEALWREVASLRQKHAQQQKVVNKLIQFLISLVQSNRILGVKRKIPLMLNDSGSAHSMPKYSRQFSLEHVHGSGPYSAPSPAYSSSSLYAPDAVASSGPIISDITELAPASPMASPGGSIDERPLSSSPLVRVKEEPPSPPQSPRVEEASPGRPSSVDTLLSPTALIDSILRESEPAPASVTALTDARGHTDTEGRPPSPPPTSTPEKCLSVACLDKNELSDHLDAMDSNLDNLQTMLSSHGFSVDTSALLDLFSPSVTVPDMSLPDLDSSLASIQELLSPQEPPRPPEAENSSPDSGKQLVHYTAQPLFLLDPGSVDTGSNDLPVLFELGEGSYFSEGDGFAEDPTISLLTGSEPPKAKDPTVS

[2] = target: T1, Heat shock factor 1 (Hsf1) wild-type …; assay: SEC-MALS; with 10 mM DTT (+ Reductant); 50 uM injected; 25 mM HEPES/KOH pH 7.2, 150 mM KCl; Bio SEC-5 1000 A column; oligomer size from the median molar mass; details: remark: other sources report otherwise
[3] = target: the molecule itself; assay: SEC; analytical SEC at varying protein concentrations; change of elution volume with decreasing concentration
[4] = target: the molecule itself; assay: SEC-MALS; without reductant (oxidative conditions); 50 uM injected; 25 mM HEPES/KOH pH 7.2, 150 mM KCl; Bio SEC-5 1000 A column; oligomer size from the median molar mass

stoichiometry N [1]: 9 mer and < 16 mer
stoichiometry N [2]: 7 mer
B1: Heat shock factor 1 (Hsf1) wild-type, Q00613 1-529 (natural protein)
chain: T1 chain

B2: Hsf1 C153S mutant (natural protein, human, UniProt Q00613 1-529, looked up)
chain: T1 chain with C153S
notes: Heat shock factor 1 (Hsf1), human, C153S in the leucine-zipper domain LZ1-3; source: E. coli BL21(DE3), purified (Ni-NTA, HRV3C cleavage, HiTrap Q anion exchange, Superdex 200 gel filtration); not shown: GB1, N-terminal, cleaved; His6, N-terminal, cleaved
binding result [3]: binds

B3: Hsf1 CS5 mutant (C36S/C103S/C153S/C373S/C378S) (natural protein, human, UniProt Q00613 1-529, looked up)
chain: T1 chain with C36S, C103S, C153S, C373S, C378S
notes: Heat shock factor 1 (Hsf1), human, all five cysteines replaced with serine; also called Hsf1 CS mutant; source: E. coli BL21(DE3), purified (Ni-NTA, HRV3C cleavage, HiTrap Q anion exchange, Superdex 200 gel filtration); not shown: GB1, N-terminal, cleaved; His6, N-terminal, cleaved
stoichiometry N [4]: ~5 mer

Reference: article PMC11863153, “Mechanistic Insights Into Oxidative Response of Heat Shock Factor 1 Condensates” (JACS Au, 2025)
